B1: M4-H1L1 (antibody, human IgG1, kappa)
heavy: not shown
light: DIQMTQSPSSLSASVGDRVTITCSASSSVFNMNWYQQKPGKSPKLWIYDISKLASGVPSRFSGSGSGTDFTLTISSLQPEDFATYYCQQRSFYPPTFGGGTKVEIKRTVAAPSVFIFPPSDEQLKSGTASVVCLLNNFYPREAKVQWKVDNALQSGNSQESVTEQDSKDSTYSLSSTLTLSKADYEKHKVYACEVTHQGLSSPVTKSFNRGEC
notes: humanized IgG1/kappa
B2: M4H1L1-ZalH4 (bispecific antibody, human IgG1, kappa)
heavy: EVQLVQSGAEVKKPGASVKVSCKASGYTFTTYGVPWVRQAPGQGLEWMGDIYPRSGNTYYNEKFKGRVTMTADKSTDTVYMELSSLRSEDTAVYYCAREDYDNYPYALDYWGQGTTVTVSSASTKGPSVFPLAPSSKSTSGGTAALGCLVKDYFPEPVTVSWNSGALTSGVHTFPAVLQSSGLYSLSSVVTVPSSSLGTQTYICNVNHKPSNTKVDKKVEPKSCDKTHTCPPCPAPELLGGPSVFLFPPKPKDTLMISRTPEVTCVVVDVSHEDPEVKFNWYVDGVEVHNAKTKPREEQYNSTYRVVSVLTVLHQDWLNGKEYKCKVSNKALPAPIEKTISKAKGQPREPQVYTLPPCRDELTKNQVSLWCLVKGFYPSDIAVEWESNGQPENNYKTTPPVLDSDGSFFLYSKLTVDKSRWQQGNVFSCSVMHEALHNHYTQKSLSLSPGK
light: B1 light
chain 1: not shown
chain 2: DIQLTQSPSSLSASVGDRVTITCRASQDISSALVWYQQKPGKAPKLLIYDASSLESGVPSRFSGSESGTDFTLTISSLQPEDFATYYCQQFNSYPLTFGGGTKVEIKGGGGSSGAPRFLTRPKASVVSVGKDATLSCQIVGNPFPQVSWEKDKQPVTAGVRFRLAQDGDLYRLKILDLQLSDSGQYVCRARNAHGEAFACLGLQVDAEA

Target: T1, Cynomolgus MUC1 his (Cat. # MU1-C52H5, Acro) (cynomolgus)
T1 construct: His-tagged, bought; also called Cyno MUC1-His
Test: SPR (Biacore T200), antibody captured on Protein A

| Binder | Kd [nM] |
| --- | --- |
| B1 | 18.9 |
| B2 | 17.8 |
